The results in this text go back to paper PMC9728385.

The target in data set [1] is TtCST Ctc1 R395E/Y445A/F473A (Tetrahymena, UniProt A0PGB2;Q6JXI5;D2CVN7;D2CVN8 1-622;1-373;1-164;1-422, R395E;Y445A;F473A). Description: EMSA.
For another data set, the target named is TtCST Ctc1 F264A/Y268A (Tetrahymena, UniProt A0PGB2;Q6JXI5;D2CVN7;D2CVN8 1-622;1-373;1-164;1-422, F264A;Y268A). Description: EMSA. In general terms: A gel shift assay detects complexes by their altered migration in electrophoresis.

Usually Kd stands for the free concentration of one partner at which half of the binding sites on the other are occupied at equilibrium, for simple one-to-one binding.

Sequence of TtCST Ctc1 R395E/Y445A/F473A (A0PGB2 whole entry R395E/Y445A/F473A, chain 1 of 4): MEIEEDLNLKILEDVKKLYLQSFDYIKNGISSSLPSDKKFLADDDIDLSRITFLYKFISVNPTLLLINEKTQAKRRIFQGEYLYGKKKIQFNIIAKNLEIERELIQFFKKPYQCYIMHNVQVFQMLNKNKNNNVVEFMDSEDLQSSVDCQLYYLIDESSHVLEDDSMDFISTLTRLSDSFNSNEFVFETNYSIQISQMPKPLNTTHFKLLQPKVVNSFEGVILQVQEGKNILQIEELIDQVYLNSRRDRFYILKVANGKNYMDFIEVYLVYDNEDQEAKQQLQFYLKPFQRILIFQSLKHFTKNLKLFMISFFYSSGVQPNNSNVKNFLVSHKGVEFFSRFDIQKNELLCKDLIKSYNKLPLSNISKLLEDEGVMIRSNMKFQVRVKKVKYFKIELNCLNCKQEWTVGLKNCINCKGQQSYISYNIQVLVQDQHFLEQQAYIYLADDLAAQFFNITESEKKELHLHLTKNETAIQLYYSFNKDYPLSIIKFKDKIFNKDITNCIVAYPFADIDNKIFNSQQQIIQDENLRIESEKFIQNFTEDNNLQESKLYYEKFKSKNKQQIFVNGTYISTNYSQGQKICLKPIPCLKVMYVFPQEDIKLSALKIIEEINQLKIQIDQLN
Sequence of TtCST Ctc1 R395E/Y445A/F473A (Q6JXI5 whole entry, chain 2 of 4): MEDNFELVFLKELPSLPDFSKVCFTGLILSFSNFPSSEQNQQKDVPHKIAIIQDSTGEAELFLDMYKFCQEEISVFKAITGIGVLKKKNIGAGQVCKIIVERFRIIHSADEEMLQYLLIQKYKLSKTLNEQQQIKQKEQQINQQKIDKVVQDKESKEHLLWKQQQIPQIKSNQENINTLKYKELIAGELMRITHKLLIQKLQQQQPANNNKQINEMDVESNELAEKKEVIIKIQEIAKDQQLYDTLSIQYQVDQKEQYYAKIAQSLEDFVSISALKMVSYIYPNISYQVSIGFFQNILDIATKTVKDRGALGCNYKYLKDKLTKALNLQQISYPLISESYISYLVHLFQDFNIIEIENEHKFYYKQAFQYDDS
Sequence of TtCST Ctc1 R395E/Y445A/F473A (D2CVN7 whole entry, chain 3 of 4): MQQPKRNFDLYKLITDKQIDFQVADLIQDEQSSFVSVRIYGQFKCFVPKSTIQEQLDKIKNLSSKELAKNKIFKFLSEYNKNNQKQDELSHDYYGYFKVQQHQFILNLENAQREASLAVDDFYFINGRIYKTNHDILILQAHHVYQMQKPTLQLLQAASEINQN
Sequence of TtCST Ctc1 R395E/Y445A/F473A (D2CVN8 whole entry, chain 4 of 4): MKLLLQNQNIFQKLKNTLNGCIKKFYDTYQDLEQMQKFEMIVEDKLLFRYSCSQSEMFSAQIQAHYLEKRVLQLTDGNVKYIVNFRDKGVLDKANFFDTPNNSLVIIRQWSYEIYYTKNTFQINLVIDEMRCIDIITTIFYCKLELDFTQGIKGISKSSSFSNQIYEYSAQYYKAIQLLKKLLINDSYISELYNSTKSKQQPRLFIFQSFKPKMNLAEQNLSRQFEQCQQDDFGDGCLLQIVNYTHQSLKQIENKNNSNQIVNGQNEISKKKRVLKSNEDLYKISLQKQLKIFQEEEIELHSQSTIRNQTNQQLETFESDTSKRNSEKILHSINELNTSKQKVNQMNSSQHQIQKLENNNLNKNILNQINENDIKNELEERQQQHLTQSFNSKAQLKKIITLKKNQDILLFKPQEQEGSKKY
Sequence of TtCST Ctc1 F264A/Y268A (A0PGB2 whole entry F264A/Y268A, chain 1 of 4): as the sequence (A0PGB2 whole entry R395E/Y445A/F473A, chain 1 of 4) above, with F264A, Y268A, E395R, A445Y, A473F counted along it
Sequence of TtCST Ctc1 F264A/Y268A (Q6JXI5 whole entry, chain 2 of 4): as the sequence (Q6JXI5 whole entry, chain 2 of 4) above
Sequence of TtCST Ctc1 F264A/Y268A (D2CVN7 whole entry, chain 3 of 4): as the sequence (D2CVN7 whole entry, chain 3 of 4) above
Sequence of TtCST Ctc1 F264A/Y268A (D2CVN8 whole entry, chain 4 of 4): as the sequence (D2CVN8 whole entry, chain 4 of 4) above

B1: d(GTTGGG)5 (ssDNA)
DNA: GTTGGGGTTGGGGTTGGGGTTGGGGTTGGG
The molecule B1 showed a Kd in data set [1] of 520 nM. This molecule displayed a binding signal with TtCST Ctc1 F264A/Y268A of 1.2 fold weaker Kd than WT.
